From the RNAGym collection of RNA variant scans (doi:10.7554/elife.90254) come the findings set out here.

The labels stand for the following.
B1: LINE1-full (parent)
chain: UACGUAGGUGGUUUUCCCCUGAUAGUGCUAAGGGGGCCUGGAAGUUUGGACUGGGCAGAGCUCAACACAGCGUGGCAAAGUGGCUGUGGCUAGACUGCCUCUCUGGAUUCCUCGUCACUCAGCAGGGCAUCUCUGAGAGAAAUGCC

In the data set the parent is B1. Description: self-cleavage, relative activity (ratio to wild type); higher = more cleavage; in vitro, sequencing; the parent is a self-cleaving ribozyme.
Turning to G55A G114U, the self-cleavage stood at 0.22.
As for G54A A117C, the figure is 1.1; as for G54A A117U, 1.1; as for G54A A94G, 0.15.
The value for G53A A141G was 1.26; that for G55U U96C was 0.08.
As for A57U G83U, the self-cleavage was 0.02.
The value for G55C A65G was 0.06; that for U52G U108C was 1.94.
With G55A U96A, the self-cleavage amounted to 0.05.
As for G55A U96C, the self-cleavage is 0.04.
As for G53U U87A, the figure is 0.05.
As to G55C C146U, the self-cleavage turned out to be 0.25.
G55A A65G: the self-cleavage worked out at 0.03.
Regarding A57G U132A, the self-cleavage was 1.29.
The value for A57G U132C was 0.86; that for A57G U132G was 0.62; that for G55A C131G was 0.35.
The value for C56G A79G was 0.1; that for A57U G75A was 0.03.
For A57U C71U, the self-cleavage was found to be 0.02.
For the variant G55A A141G, the self-cleavage came out at 0.11.
As for G54A A138G, the figure is 0.84; as for A57G A121U, 1; as for G53U A57C, 0.01.
As for A57G G86A, the figure is 0.05; as for G53U U91C, 0.54; as for C56U U130C, 0.
As for G54U G82A, the figure is 1.26.
A57U U104C: the self-cleavage is 0.15.
For the variant C56A U134C, the self-cleavage was determined as 0.07.
As for A57C U91C, the figure is 0; as for G53U A69U, 0.01; as for A57G A64G, 0.3.
As to A57G A64U, the self-cleavage turned out to be 0.3.
Consider A57U U130A, for which the self-cleavage is 0.15.
As for A57U U130C, the figure is 0.13; as for A57G A107G, 1.01.
As to A57U U102C, the self-cleavage is 0.13.
As for A57U A64G, the figure is 0.1; as for G55C A67G, 0.05; as for A57C A78G, 0.
With A57C A67U, the self-cleavage was found to be 0.14.
As for G53A U62C, the figure is 0.05; as for A57G A138C, 1.13; as for A57C U130C, 0.18.
As for A57G G125U, the figure is 0.92; as for A57G G125A, 0.52.
The value for A57U C145U was 0.08; that for A57G G82C was 1.36; that for A57G G82A was 1.75.
Take C56A U130G: the self-cleavage came to 0.03.
As to G54A, the self-cleavage turned out to be 0.61.
As for G54U, the figure is 0.67; as for G54C, 0.86; as for A57U G135U, 0.08.
In the case of G53U A94G, the self-cleavage amounted to 0.2.
For the variant A57G A136G, the self-cleavage was found to be 1.33.
As for C56G A129C, the figure is 0.08.
As for A57C U112C, the figure is 0.08.
As for G53A U112C, the figure is 1.25; as for A57G A117U, 0.79; as for G53A A142G, 1.3.
On to U52G U100A, for which the self-cleavage is 0.43.
For A57U A67C, the self-cleavage worked out at 0.07.
The value for A57U A67G was 0.12; that for A57U U112C was 0.01; that for G55A A64G was 0.
Consider G53U A64G, for which the self-cleavage was 0.16.
The value for C56U U96A was 0.03.
The value for A57G A124C was 0.91; that for C56U U85C was 0.07.
The value for C56U U85G was 0.03.
As for A57U A138G, the self-cleavage came to 0.15.
As for G55U A142G, the figure is 0.11.
As to C56U A69G, the self-cleavage was 0.02.
Turning to C56U A69U, the self-cleavage worked out at 0.02.
The value for G54A U108C was 0.89; that for G54A U112A was 0.83; that for A57G G106U was 0.58.
Consider G55U C133A, for which the self-cleavage is 0.26.
As for G55C A94C, the figure is 0.
Consider A59C A77U, for which the self-cleavage was 0.6.
As for G55C A142G, the figure is 0.06; as for A57G C98G, 0.07.
As for A57G U100C, the figure is 1.99; as for G53U U130C, 1.5.
In the case of G53A U96C, the self-cleavage was 0.
For A57U U96C, the self-cleavage came to 0.06.
For A57U U96G, the self-cleavage came out at 0.22.
The value for A57U U96A was 0.52; that for G55A U87C was 0.04; that for A57U C128U was 0.11.
The value for A57U A59U was 0.07.
As to G55A U115A, the self-cleavage was 0.21.
As for G55A U115C, the figure is 0.63; as for G58A A129G, 0.03; as for G58A A129U, 0.06.
Turning to G53U U73C, the self-cleavage was 1.22.
As for A57C G97U, the self-cleavage was 0.04.
As for G54A U134G, the self-cleavage was 0.76.
The value for A57G A65C was 0.05.
The value for G58A was 0.05; that for G58U was 0.05.
Consider G58C, for which the self-cleavage worked out at 0.03.
For the variant C56U U132C, the self-cleavage was 0.2.
As for A57C G127A, the figure is 0.03; as for G54A U73C, 0.67; as for U52G U112A, 0.56.
U52G U112C: the self-cleavage worked out at 0.99.
As for G54A A69C, the figure is 0.04; as for G53A A124U, 1.28.
The value for G53C A64G was 0.22.
For the variant G58A A138G, the self-cleavage was found to be 0.04.
As for C56U U73C, the figure is 0.25; as for C56U U73A, 0.08.
On to A57U U115A, for which the self-cleavage worked out at 0.09.
As for G58A U130C, the figure is 0.05.
The value for G53C U115C was 1.96; that for G53A A79G was 0.71; that for G55A G125C was 0.15.
G55A U85C: the self-cleavage came to 0.06.
As to G58A A79G, the self-cleavage amounted to 0.06.
With G54A A121U, the self-cleavage was 0.85.
The value for G55A U108C was 0.52.
Turning to A57C C61U, the self-cleavage came to 0.05.
As for A57U U109C, the figure is 0.03; as for C56U U119C, 0.21.
The value for A57C U102A was 0.06; that for G54C A138G was 1.35; that for G53C U81C was 1.34.
As for A57G U143C, the figure is 0.81; as for A57G U143A, 0.84; as for G54A U104C, 0.44.
Turning to G54A U104A, the self-cleavage was found to be 0.18.
On to A57U G126U, for which the self-cleavage was 0.1.
As for A57G A67G, the figure is 0.28; as for A57U G144U, 0.3; as for G58A U81G, 0.12.
As for G55A C110U, the figure is 0.53; as for A57G G137A, 0.99.
For A59C C131A, the self-cleavage turned out to be 1.15.
As for C56U A117G, the figure is 0.18; as for G53A U85C, 0.2; as for G53A U85A, 0.14.
The value for A57G C116U was 0.71; that for A57C U143A was 0.22; that for G58A C145U was 0.04.
As for A57G U119A, the figure is 0.85.
For C56U A59G, the self-cleavage is 0.05.
The value for G58A A107G was 0.04; that for A57U U134G was 0.02.
The value for A57U U134C was 0.12; that for A57C C131A was 0.08; that for G54A C116A was 0.47.
For the variant C56U U134C, the self-cleavage was 0.23.
The value for C56U A129U was 0.23.
In the case of G53A C103A, the self-cleavage was found to be 1.43.
As for G55A U102C, the figure is 0.17; as for A57G U104A, 0.3; as for U52G U109A, 2.14.
The value for G58U A59G was 0.06.
Consider G53A A136U, for which the self-cleavage amounted to 1.47.
The value for A57C A65G was 0.
On to G58U A65U, for which the self-cleavage is 0.04.
As for G53U A65U, the figure is 0.27; as for G58U G80A, 0.
